In patent US20230235013A1 (MABSOLVE, published 2023):

Tests used:
human FcγRIIIA (F158) = biological target: T1, human FcγRIIIA (F158) (human, UniProt P08637 17-208); assay: SPR, FcγRIIIA captured; note: test concentration or dose not given here
T1 construct: bought; F158 allele

[1] = biological target: T2, Histidine-tagged recombinant human FcγRI (CD64) (human, UniProt P12314 16-288, limits assumed); assay: SPR, His-FcγRI captured; Expt 1;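 note: SPR at 25 °C on anti-His antibody chip capturing FcγRI, Fc-variant antibodies injected at 100 µg/mL for 1 min, signal near end of injection minus buffer blank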
T2 construct: bought

[2] = biological target: T2, Histidine-tagged recombinant human …; assay: SPR, His-FcγRI captured; Expt 2;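 note: biacore T200 SPR at 25 °C, Fc-variant antibodies at 100 µg/mL flowed 1 min over anti-His-captured receptor, signal read near injection end minus third buffer blank; antibody analyte injected at 100 µg/mL for 1 min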
Experimental: (§1) Binding analysis was carried out by surface plasmon resonance at 25° C. using a Biacore® T200 instrument with Biacore® T200 control software. The sample compartment was held at 5° C. The running buffer (HBS-EP+) consisted of 0.01 M HEPES pH 7.4, containing 0.15 M NaCl, 3 mM EDTA, and 0.05% v/v Surfactant P20. Methods were run using the manufacturer's standard method wizards as described in the Biacore® T200 Instrument Handbook.
(§2) The cell was activated by treatment with EDC/NHS for 7 min. The antibody was diluted to 10 μg/mL in 10 mM sodium acetate pH 5.0 and injected for 7 min at 5 μL/min. The flow cell was deactivated by injection of 1M ethanolamine for 7 min. This process was repeated in the absence of anti-his antibody on a separate flow cell to generate a reference surface. […] Samples of purified antibodies comprising variant Fc regions (1 mg/mL in PBS) were diluted with running buffer to 100 μg/mL and were injected for 1 min at 30 μL/min and allowed to disassociate for 2 min. Between each cycle, the chip was regenerated by injection of 10 mM glycine pH 3.0 for 0.5 min at a flow rate of 30 μL/min and recharged with a fresh injection of FcγRI. At the beginning of each experiment, three blank cycles were run, with buffer alone being injected instead of test sample. The average SPR signal (relative to the reference cell) was measured in a window approximately 8 to 13 seconds before the injection of test sample (baseline) and approximately 3 to 8 seconds before the end of injection (response). The response of the third of the blank (buffer) samples was subtracted from the response of each test sample in order to allow for any dissociation of the bound FcγRI giving a corrected response for each test sample. The whole experiment was repeated three times with the test samples being analysed in different orders each time.

[3] = biological target: T2, Histidine-tagged recombinant human …; assay: SPR, His-FcγRI captured; Expt 3;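 note: biacore T200 SPR at 25 °C, Fc-variant antibodies at 100 µg/mL flowed 1 min over anti-His-captured FcγRI, signal taken just before injection end minus a buffer blank cycle; antibody analyte injected at 100 µg/mL for 1 min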
Experimental: as §1, §2

[4] = biological target: T2, Histidine-tagged recombinant human …; assay: SPR, His-FcγRI captured; mean;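 note: biacore T200 SPR at 25 °C, anti-His surface capturing FcγRI, Fc-variant antibodies injected at 100 µg/mL for 1 min, signal near injection end minus third buffer blank, three repeats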
Experimental: as §1, §2

T1 sequence (P08637 17-208 limits assumed): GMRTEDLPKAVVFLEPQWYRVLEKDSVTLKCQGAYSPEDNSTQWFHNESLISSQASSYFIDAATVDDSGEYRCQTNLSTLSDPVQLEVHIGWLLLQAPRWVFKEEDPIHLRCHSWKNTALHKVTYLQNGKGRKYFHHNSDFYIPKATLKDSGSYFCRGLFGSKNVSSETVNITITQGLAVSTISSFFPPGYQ

Row | Corrected response (RU) (human FcγRIIIA (F158)) | Corrected response (RU) [1] [RU] | Corrected response (RU) [2] [RU] | Corrected response (RU) [3] [RU] | Corrected response (RU), Mean [4] [RU] | Binder
1 | 5.8 | -0.1 | 2.7 | 3.1 |  | anti-CD20 human IgG1 L234G/L235S/G236R (antibody, also called 2-19; 1-59) heavy: QVQLQQPGAELVKPGASVKMSCKASGYTFTSYNMHWVKQTPGRGLEWIGAIYPGNGDTSYNQKFKGKATLTADKSSSTAYMQLSSLTSEDSAVYYCARSTYYGGDWYFNVWGAGTTVTVSSASTKGPSVFPLAPSSKSTSGGTAALGCLVKDYFPEPVTVSWNSGALTSGVHTFPAVLQSSGLYSLSSVVTVPSSSLGTQTYICNVNHKPSNTKVDKKVEPKSCDKTHTCPPCPAPEGSRGPSVFLFPPKPKDTLMISRTPEVTCVVVDVSHEDPEVKFNWYVDGVEVHNAKTKPREEQYNSTYRVVSVLTVLHQDWLNGKEYKCKVSNKALPAPIEKTISKAKGQPREPQVYTLPPSRDELTKNQVSLTCLVKGFYPSDIAVEWESNGQPENNYKTTPPVLDSDGSFFLYSKLTVDKSRWQQGNVFSCSVMHEALHNHYTQKSLSLSPGK light: QIVLSQSPAILSASPGEKVTMTCRASSSVSYIHWFQQKPGSSPKPWIYATSNLASGVPVRFSGSGSGTSYSLTISRVEAEDAATYYCQQWTSNPPTFGGGTKLEIKRTVAAPSVFIFPPSDEQLKSGTASVVCLLNNFYPREAKVQWKVDNALQSGNSQESVTEQDSKDSTYSLSSTLTLSKADYEKHKVYACEVTHQGLSSPVTKSFNRGEC
2 | 7.1 | 0.6 |  | 3.2 | 2.2 | anti-CD20 human IgG1 L234K/L235R/G236R (antibody, also called 2-23; 1-88) heavy: QVQLQQPGAELVKPGASVKMSCKASGYTFTSYNMHWVKQTPGRGLEWIGAIYPGNGDTSYNQKFKGKATLTADKSSSTAYMQLSSLTSEDSAVYYCARSTYYGGDWYFNVWGAGTTVTVSSASTKGPSVFPLAPSSKSTSGGTAALGCLVKDYFPEPVTVSWNSGALTSGVHTFPAVLQSSGLYSLSSVVTVPSSSLGTQTYICNVNHKPSNTKVDKKVEPKSCDKTHTCPPCPAPEKRRGPSVFLFPPKPKDTLMISRTPEVTCVVVDVSHEDPEVKFNWYVDGVEVHNAKTKPREEQYNSTYRVVSVLTVLHQDWLNGKEYKCKVSNKALPAPIEKTISKAKGQPREPQVYTLPPSRDELTKNQVSLTCLVKGFYPSDIAVEWESNGQPENNYKTTPPVLDSDGSFFLYSKLTVDKSRWQQGNVFSCSVMHEALHNHYTQKSLSLSPGK light: QIVLSQSPAILSASPGEKVTMTCRASSSVSYIHWFQQKPGSSPKPWIYATSNLASGVPVRFSGSGSGTSYSLTISRVEAEDAATYYCQQWTSNPPTFGGGTKLEIKRTVAAPSVFIFPPSDEQLKSGTASVVCLLNNFYPREAKVQWKVDNALQSGNSQESVTEQDSKDSTYSLSSTLTLSKADYEKHKVYACEVTHQGLSSPVTKSFNRGEC
3 | 7.3 | -1.7 | 1.1 | 4.1 |  | anti-CD20 human IgG1 L234K/L235S/G236R (antibody, also called 2-24; 1-89) heavy: QVQLQQPGAELVKPGASVKMSCKASGYTFTSYNMHWVKQTPGRGLEWIGAIYPGNGDTSYNQKFKGKATLTADKSSSTAYMQLSSLTSEDSAVYYCARSTYYGGDWYFNVWGAGTTVTVSSASTKGPSVFPLAPSSKSTSGGTAALGCLVKDYFPEPVTVSWNSGALTSGVHTFPAVLQSSGLYSLSSVVTVPSSSLGTQTYICNVNHKPSNTKVDKKVEPKSCDKTHTCPPCPAPEKSRGPSVFLFPPKPKDTLMISRTPEVTCVVVDVSHEDPEVKFNWYVDGVEVHNAKTKPREEQYNSTYRVVSVLTVLHQDWLNGKEYKCKVSNKALPAPIEKTISKAKGQPREPQVYTLPPSRDELTKNQVSLTCLVKGFYPSDIAVEWESNGQPENNYKTTPPVLDSDGSFFLYSKLTVDKSRWQQGNVFSCSVMHEALHNHYTQKSLSLSPGK light: QIVLSQSPAILSASPGEKVTMTCRASSSVSYIHWFQQKPGSSPKPWIYATSNLASGVPVRFSGSGSGTSYSLTISRVEAEDAATYYCQQWTSNPPTFGGGTKLEIKRTVAAPSVFIFPPSDEQLKSGTASVVCLLNNFYPREAKVQWKVDNALQSGNSQESVTEQDSKDSTYSLSSTLTLSKADYEKHKVYACEVTHQGLSSPVTKSFNRGEC
4 | 4.4 |  |  | 3.6 | 2.2 | anti-CD20 human IgG1 L234Q/L235A/G236R (antibody, also called 2-27) heavy: not shown light: QIVLSQSPAILSASPGEKVTMTCRASSSVSYIHWFQQKPGSSPKPWIYATSNLASGVPVRFSGSGSGTSYSLTISRVEAEDAATYYCQQWTSNPPTFGGGTKLEIKRTVAAPSVFIFPPSDEQLKSGTASVVCLLNNFYPREAKVQWKVDNALQSGNSQESVTEQDSKDSTYSLSSTLTLSKADYEKHKVYACEVTHQGLSSPVTKSFNRGEC
5 | 4.4 | 0 | 2.4 | 3.9 |  | anti-CD20 human IgG1 L234R/L235K/G236R (antibody, also called 2-40) heavy: QVQLQQPGAELVKPGASVKMSCKASGYTFTSYNMHWVKQTPGRGLEWIGAIYPGNGDTSYNQKFKGKATLTADKSSSTAYMQLSSLTSEDSAVYYCARSTYYGGDWYFNVWGAGTTVTVSSASTKGPSVFPLAPSSKSTSGGTAALGCLVKDYFPEPVTVSWNSGALTSGVHTFPAVLQSSGLYSLSSVVTVPSSSLGTQTYICNVNHKPSNTKVDKKVEPKSCDKTHTCPPCPAPERKRGPSVFLFPPKPKDTLMISRTPEVTCVVVDVSHEDPEVKFNWYVDGVEVHNAKTKPREEQYNSTYRVVSVLTVLHQDWLNGKEYKCKVSNKALPAPIEKTISKAKGQPREPQVYTLPPSRDELTKNQVSLTCLVKGFYPSDIAVEWESNGQPENNYKTTPPVLDSDGSFFLYSKLTVDKSRWQQGNVFSCSVMHEALHNHYTQKSLSLSPGK light: QIVLSQSPAILSASPGEKVTMTCRASSSVSYIHWFQQKPGSSPKPWIYATSNLASGVPVRFSGSGSGTSYSLTISRVEAEDAATYYCQQWTSNPPTFGGGTKLEIKRTVAAPSVFIFPPSDEQLKSGTASVVCLLNNFYPREAKVQWKVDNALQSGNSQESVTEQDSKDSTYSLSSTLTLSKADYEKHKVYACEVTHQGLSSPVTKSFNRGEC
6 | 3.8 | 2.6 |  | 3.7 | 2.6 | anti-CD20 human IgG1 L234S/L235G/G236R (antibody, also called 2-47; 1-140) heavy: QVQLQQPGAELVKPGASVKMSCKASGYTFTSYNMHWVKQTPGRGLEWIGAIYPGNGDTSYNQKFKGKATLTADKSSSTAYMQLSSLTSEDSAVYYCARSTYYGGDWYFNVWGAGTTVTVSSASTKGPSVFPLAPSSKSTSGGTAALGCLVKDYFPEPVTVSWNSGALTSGVHTFPAVLQSSGLYSLSSVVTVPSSSLGTQTYICNVNHKPSNTKVDKKVEPKSCDKTHTCPPCPAPESGRGPSVFLFPPKPKDTLMISRTPEVTCVVVDVSHEDPEVKFNWYVDGVEVHNAKTKPREEQYNSTYRVVSVLTVLHQDWLNGKEYKCKVSNKALPAPIEKTISKAKGQPREPQVYTLPPSRDELTKNQVSLTCLVKGFYPSDIAVEWESNGQPENNYKTTPPVLDSDGSFFLYSKLTVDKSRWQQGNVFSCSVMHEALHNHYTQKSLSLSPGK light: QIVLSQSPAILSASPGEKVTMTCRASSSVSYIHWFQQKPGSSPKPWIYATSNLASGVPVRFSGSGSGTSYSLTISRVEAEDAATYYCQQWTSNPPTFGGGTKLEIKRTVAAPSVFIFPPSDEQLKSGTASVVCLLNNFYPREAKVQWKVDNALQSGNSQESVTEQDSKDSTYSLSSTLTLSKADYEKHKVYACEVTHQGLSSPVTKSFNRGEC
7 | 2.4 | -1.1 |  | 1.6 | 0.8 | anti-CD20 human IgG1 L234S/L235R/G236R (antibody, also called 2-51) heavy: QVQLQQPGAELVKPGASVKMSCKASGYTFTSYNMHWVKQTPGRGLEWIGAIYPGNGDTSYNQKFKGKATLTADKSSSTAYMQLSSLTSEDSAVYYCARSTYYGGDWYFNVWGAGTTVTVSSASTKGPSVFPLAPSSKSTSGGTAALGCLVKDYFPEPVTVSWNSGALTSGVHTFPAVLQSSGLYSLSSVVTVPSSSLGTQTYICNVNHKPSNTKVDKKVEPKSCDKTHTCPPCPAPESRRGPSVFLFPPKPKDTLMISRTPEVTCVVVDVSHEDPEVKFNWYVDGVEVHNAKTKPREEQYNSTYRVVSVLTVLHQDWLNGKEYKCKVSNKALPAPIEKTISKAKGQPREPQVYTLPPSRDELTKNQVSLTCLVKGFYPSDIAVEWESNGQPENNYKTTPPVLDSDGSFFLYSKLTVDKSRWQQGNVFSCSVMHEALHNHYTQKSLSLSPGK light: QIVLSQSPAILSASPGEKVTMTCRASSSVSYIHWFQQKPGSSPKPWIYATSNLASGVPVRFSGSGSGTSYSLTISRVEAEDAATYYCQQWTSNPPTFGGGTKLEIKRTVAAPSVFIFPPSDEQLKSGTASVVCLLNNFYPREAKVQWKVDNALQSGNSQESVTEQDSKDSTYSLSSTLTLSKADYEKHKVYACEVTHQGLSSPVTKSFNRGEC
8 | 17.1 | 1.3 |  |  |  | anti-CD20 human IgG1 L234T/L235T/G236R (antibody, also called 2-63; 1-165) heavy: QVQLQQPGAELVKPGASVKMSCKASGYTFTSYNMHWVKQTPGRGLEWIGAIYPGNGDTSYNQKFKGKATLTADKSSSTAYMQLSSLTSEDSAVYYCARSTYYGGDWYFNVWGAGTTVTVSSASTKGPSVFPLAPSSKSTSGGTAALGCLVKDYFPEPVTVSWNSGALTSGVHTFPAVLQSSGLYSLSSVVTVPSSSLGTQTYICNVNHKPSNTKVDKKVEPKSCDKTHTCPPCPAPETTRGPSVFLFPPKPKDTLMISRTPEVTCVVVDVSHEDPEVKFNWYVDGVEVHNAKTKPREEQYNSTYRVVSVLTVLHQDWLNGKEYKCKVSNKALPAPIEKTISKAKGQPREPQVYTLPPSRDELTKNQVSLTCLVKGFYPSDIAVEWESNGQPENNYKTTPPVLDSDGSFFLYSKLTVDKSRWQQGNVFSCSVMHEALHNHYTQKSLSLSPGK light: QIVLSQSPAILSASPGEKVTMTCRASSSVSYIHWFQQKPGSSPKPWIYATSNLASGVPVRFSGSGSGTSYSLTISRVEAEDAATYYCQQWTSNPPTFGGGTKLEIKRTVAAPSVFIFPPSDEQLKSGTASVVCLLNNFYPREAKVQWKVDNALQSGNSQESVTEQDSKDSTYSLSSTLTLSKADYEKHKVYACEVTHQGLSSPVTKSFNRGEC
